Data reported in patent US9586990B2, “Enzymes for transforming ergopeptines and method therefor” (Erber Aktiengesellschaft, priority 2012, dated 2017).

Tests used:
[1] = degradation assay in the in-vitro rumen model; details: 1 μg/ml enzyme, 5 mg/kg ergotamine, rumen juice diluted 1:1, 39° C., HPLC/ESI-MS/MS
[2] = assay for reacting the six ergopeptines and their isomeric forms; type: biochemical; details: 1.58 μg/ml enzyme, concentrations equimolar to 10 mg/kg ergotamine; pH 7.0, 25° C.; FIG. 2
Description: (§1) The gene with the sequence ID No. 2, which codes for an α/β-hydrolase comprising a catalytic triad of S94-D234-H270, was cloned into the expression vector pET28a(+) by applying standard methods, transformed and expressed in E. coli. Following the expression in E. coli BL21(DE3), the his-tagged enzyme was purified by affinity chromatography. The enzyme concentration was determined using a Pierce BSA Protein Assay Kit, and the enzyme was used in activity assays. The assays were carried out in 50 mM sodium phosphate buffer (pH 7.0) at 25° C.
A further assay for reacting the six ergopeptines, namely ergotamine, ergovaline, ergocomine, ergocristine, ergocryptine or ergosine, and their respective isomeric forms, namely ergotaminine, ergovalinine, ergocominine, ergocristinine, ergocryptinine and ergosinine, used 1.58 μg/ml of the enzyme with sequence ID No. 1 and 10 mg/kg ergotamine, or the equimolar (summation) concentrations of the remaining ergopeptines or their epimers.
The samples were analyzed using HPLC-FLD or HPLC-MS/MS, each by analytically determining the respective concentration of the sum of the respective epimers. […] During the continued reaction course, the conversion of metabolite 1 to ergine was detected.

[3] = temperature range of the activity; type: biochemical; details: 0.1 μg/ml enzyme, 5 mg/kg ergotamine, Teorell-Stenhagen universal buffer pH 9.0
[4] = temperature stability of the enzyme; type: biochemical
Description: In order to determine the temperature stability, the enzyme was incubated for 1 h at varying temperatures ranging from 10° C. to 60° C. After this, the enzyme solutions were incubated at concentrations of 0.1 μg/ml in Teorell-Stenhagen universal buffer (pH 7.0) with 0.1 mg/ml BSA and 5 mg/kg ergotamine at 25° C.

[5] = pH stability of the enzyme; type: biochemical; details: 1 h at 25° C. at pH 2 to pH 12; then assay at pH 7.0, 25° C.
Description: In order to determine the pH stability, the enzyme was incubated for 1 h at 25° C. at varying pH values ranging from pH 2 to pH 12. After this, the enzyme solutions in concentrations of 0.1 μg/ml were incubated with 0.1 mg/ml BSA and 5 mg/kg ergotamine in Teorell-Stenhagen universal buffer (pH 7.0) at 25° C.

[6] = activity (detoxification) assay of the purified his-tagged enzyme with ergotamine; type: biochemical; details: FIG. 1; 50 mM sodium phosphate buffer pH 7.0, 25° C.; enzyme 0.079 μg/ml, ergotamine 5 mg/kg
Description: as §1
In the context of the detoxification assays, enzyme concentrations of 0.079 μg/ml and ergotamine concentrations of 5 mg/kg were used.
The samples were analyzed using HPLC-FLD or HPLC-MS/MS, each by analytically determining the respective concentration of the sum of the respective epimers. Simultaneously with the determination of the ergopeptine concentration during the enzymatic reaction, the formation of the ergo hydroxy acid (metabolite 1) and of the ergoproline cyclodipeptide (metabolite 2) was observed. During the continued reaction course, the conversion of metabolite 1 to ergine was detected.

B1: enzyme with the sequence ID No. 1: α/β-hydrolase with catalytic triad S94-D234-H270, coded by gene sequence ID No. 2, cleaving ergopeptines in the cyclol ring (protein, listed as Rhodococcus erythropolis)
chain: MPLVVLSDGTRIHVETSGNGVPALVPCVGSSVPFERTFGEELKTDIQYNFVEVRGTSRSDGEPSEVASLDRISDDLEEVRQLLGLDKVIALGQSRNGMMAAHYAQKYPNSVLHLVTIGTPASLSMIKNEEYWNAFADDERKRLRAENDAAMEREGLLDLDNLNTAEKIVRLFDLEGAVYFYDPTTLMNDWWDASLLSRTFEVVMASNMGWADFDLVQTLQNSDVPAFVTFGKYDFMVSPLPKPGNPVDGKAGLFEDIPGVRVEVFEKSGHFPYWEQEQEFARRYRDWVATLPESAVRAAEAMTPNGIRQ
[1]
  conversion of ergotamine in the rumen model: completely converted into ergine and lysergic acid
[2]
  reaction courses of all other ergopeptines and their isomeric forms relative to ergotamine: comparable
[3]
  temperature optimum of activity, based on the starting speed: 35 °C
[4]; 1 h preincubation at 10° C. to 60° C., then 0.1 μg/ml enzyme, pH 7.0, 0.1 mg/ml BSA, 5 mg/kg ergotamine, 25° C.
  temperature up to which the enzyme is stable: ≤ 30 °C
[4]; 1 h preincubation at 40° C., then assay at pH 7.0, 25° C.
  activity after incubation at 40° C.: still displaying some activity
[5]
  activity outside the pH 6 to pH 9 range after preincubation: strongly decreasing activity
[6]
  time to almost complete degradation of ergotamine to ergine: ≤ 4 h
